Experimental data reported in PMC10722681, “RGCC-mediated PLK1 activity drives breast cancer lung metastasis by phosphorylating AMPKα2 to activate oxidative phosphorylation and fatty acid oxidation” (Journal of Experimental & Clinical Cancer Research : CR, 2023).

Biological target: HA-PLK1 (human, UniProt P53350 1-603)
Assay: cell-based or functional assay

HA-PLK1, sequence (P53350 whole entry): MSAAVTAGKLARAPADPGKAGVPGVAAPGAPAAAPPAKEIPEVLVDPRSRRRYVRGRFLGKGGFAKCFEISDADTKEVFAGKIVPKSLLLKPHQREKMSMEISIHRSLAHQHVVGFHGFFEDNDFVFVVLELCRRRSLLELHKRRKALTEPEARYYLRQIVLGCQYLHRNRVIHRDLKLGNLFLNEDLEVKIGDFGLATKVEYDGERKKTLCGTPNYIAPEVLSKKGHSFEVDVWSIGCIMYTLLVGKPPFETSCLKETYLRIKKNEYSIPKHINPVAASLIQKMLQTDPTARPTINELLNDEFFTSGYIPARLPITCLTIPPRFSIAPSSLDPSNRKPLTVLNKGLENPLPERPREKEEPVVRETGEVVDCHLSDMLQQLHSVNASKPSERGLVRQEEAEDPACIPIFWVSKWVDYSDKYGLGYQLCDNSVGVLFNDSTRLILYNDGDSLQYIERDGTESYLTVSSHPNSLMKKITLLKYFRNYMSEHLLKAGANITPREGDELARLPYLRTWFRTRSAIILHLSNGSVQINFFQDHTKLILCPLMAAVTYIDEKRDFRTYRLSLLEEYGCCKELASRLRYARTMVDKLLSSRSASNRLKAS

B1: GST-RGCC (natural protein, UniProt Q9H4X1 1-137, looked up)
chain: MKPPAAQGSPAAAAAAAPALDSAAAEDLSDALCEFDAVLADFASPFHERHFHYEEHLERMKRRSSASVSDSSGFSDSESADSLYRNSFSFSDEKLNSPTDSTPALLSATVTPQKAKLGDTKELEAFIADLDKTLASM
With B1 the “in vitro PLK1 kinase activity (universal kinase activity kit, purified PLK1 with AMPKα2 and ATP); EC50 of RGCC for activation of PLK1” value was 19.4 nM.
